The data set deals with the molecule itself. The data set can be described thus: NMR solution structure.

B1: Mycobacterium tuberculosis NmtR (apo-state, homodimer) (natural protein)
chain: GHGVEGRNRPSAPLDSQAAAQVASTLQALATPSRLMILTQLRNGPLPVTDLAEAIGMEQSAVSHQLRVLRNLGLVVGDRAGRSIVYSLYDTHVAQLLDEAIYHSEHLHLGLSDRHPSAG
Regarding B1, the binding result is reported as “binds”.

For the origin of these results see article PMC3500661 (Biochemistry, 2012).
